Measurements as given in patent US20140228546A1 (Ablynx, published 2014).

Key:
[1] = target: T1, c-MET receptor on A549 cells (UniProt P08581 25-1390, limits assumed); assay: cell-based or functional assay
[2] = target: T1, c-MET receptor on A549 cells; assay: cell-based or functional assay; remark: listed apart in the source
[3] = target: T2, human serum albumin (human, UniProt P02768 25-609); assay: SPR, Biacore T100, albumin immobilized on CM5, 25 C, 1:1 model
T2 construct: also called Human SA; HSA
T2 sequence (P02768 25-609 limits assumed): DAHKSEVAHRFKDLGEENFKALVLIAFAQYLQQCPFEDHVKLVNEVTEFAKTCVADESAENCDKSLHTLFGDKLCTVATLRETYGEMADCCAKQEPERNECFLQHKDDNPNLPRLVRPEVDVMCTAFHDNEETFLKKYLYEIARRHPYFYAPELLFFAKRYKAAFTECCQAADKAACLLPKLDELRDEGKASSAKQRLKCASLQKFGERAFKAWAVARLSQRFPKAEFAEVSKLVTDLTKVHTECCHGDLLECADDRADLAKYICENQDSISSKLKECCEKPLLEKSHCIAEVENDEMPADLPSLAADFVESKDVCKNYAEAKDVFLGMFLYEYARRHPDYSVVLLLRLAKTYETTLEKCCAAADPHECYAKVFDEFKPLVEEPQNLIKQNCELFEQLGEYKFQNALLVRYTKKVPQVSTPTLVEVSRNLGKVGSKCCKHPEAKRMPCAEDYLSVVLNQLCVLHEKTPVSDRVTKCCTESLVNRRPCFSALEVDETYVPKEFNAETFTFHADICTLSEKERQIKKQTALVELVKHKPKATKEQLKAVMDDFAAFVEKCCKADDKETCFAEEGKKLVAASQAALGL
Protocol: (§1) HBS-EP+ buffer (0.01M HEPES buffer containing 0.15M NaCl, 3 mM EDTA and 0.05% Surfactant p20, pH7.4) was used as the running buffer and experiments were performed at 25° C. Serum albumin was chemically coupled on a Series S sensorchip chip CM5 with carboxymethylated dextran surface by a manual immobilization run at a flow rate of 5 μl/min. […] After immobilization, surfaces were deactivated with a 7 min injection of 1M ethanolamine pH8.5. A blank reference surface (flowcell 1) was activated and deactivated as described above. […] Between different samples, the surfaces were regenerated with regeneration buffer 10 mM glycine-HCl pH1.5, 100 s at 45 μl/min. Data were double referenced by subtraction of the curves on the reference channel and of a blank running buffer injection curve. Processed curves were evaluated by fitting a 1:1 binding model onto the binding curves in the Biacore T100 Evaluation software.

[4] = target: T3, cynomolgus serum albumin (cynomolgus, UniProt A2V9Z4 25-608); assay: as above
T3 construct: also called Cyno SA
T3 sequence (A2V9Z4 25-608 limits assumed): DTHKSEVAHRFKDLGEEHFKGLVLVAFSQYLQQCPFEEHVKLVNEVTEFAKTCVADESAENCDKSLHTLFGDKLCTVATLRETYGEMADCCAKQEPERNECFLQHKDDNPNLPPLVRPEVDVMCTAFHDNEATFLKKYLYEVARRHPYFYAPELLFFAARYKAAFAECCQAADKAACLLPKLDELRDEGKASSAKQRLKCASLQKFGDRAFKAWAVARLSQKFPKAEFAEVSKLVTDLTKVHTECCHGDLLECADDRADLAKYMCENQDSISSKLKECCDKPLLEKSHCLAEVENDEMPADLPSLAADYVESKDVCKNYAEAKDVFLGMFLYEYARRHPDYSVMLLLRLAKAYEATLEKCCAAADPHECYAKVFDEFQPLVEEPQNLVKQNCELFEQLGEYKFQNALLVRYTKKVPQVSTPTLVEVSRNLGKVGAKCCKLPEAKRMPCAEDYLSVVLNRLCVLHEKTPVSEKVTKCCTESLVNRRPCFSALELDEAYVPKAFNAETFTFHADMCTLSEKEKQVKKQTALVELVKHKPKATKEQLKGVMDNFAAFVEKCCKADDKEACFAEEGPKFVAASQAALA
Protocol: as §1

[5] = target: T4, mouse serum albumin (mouse, UniProt P07724 25-608); assay: as above
T4 construct: also called Murine SA
Protocol: as §1

[6] = target: T5, c-MET/Fc (UniProt P08581 25-932); assay: HGF/c-MET competition AlphaScreen; competitor: 100 pM biotinylated hHGF
T5 construct: also called c-MET receptor; not shown: Fc part, captured by anti-human Fc acceptor beads
T5 sequence (P08581 25-932 limits assumed): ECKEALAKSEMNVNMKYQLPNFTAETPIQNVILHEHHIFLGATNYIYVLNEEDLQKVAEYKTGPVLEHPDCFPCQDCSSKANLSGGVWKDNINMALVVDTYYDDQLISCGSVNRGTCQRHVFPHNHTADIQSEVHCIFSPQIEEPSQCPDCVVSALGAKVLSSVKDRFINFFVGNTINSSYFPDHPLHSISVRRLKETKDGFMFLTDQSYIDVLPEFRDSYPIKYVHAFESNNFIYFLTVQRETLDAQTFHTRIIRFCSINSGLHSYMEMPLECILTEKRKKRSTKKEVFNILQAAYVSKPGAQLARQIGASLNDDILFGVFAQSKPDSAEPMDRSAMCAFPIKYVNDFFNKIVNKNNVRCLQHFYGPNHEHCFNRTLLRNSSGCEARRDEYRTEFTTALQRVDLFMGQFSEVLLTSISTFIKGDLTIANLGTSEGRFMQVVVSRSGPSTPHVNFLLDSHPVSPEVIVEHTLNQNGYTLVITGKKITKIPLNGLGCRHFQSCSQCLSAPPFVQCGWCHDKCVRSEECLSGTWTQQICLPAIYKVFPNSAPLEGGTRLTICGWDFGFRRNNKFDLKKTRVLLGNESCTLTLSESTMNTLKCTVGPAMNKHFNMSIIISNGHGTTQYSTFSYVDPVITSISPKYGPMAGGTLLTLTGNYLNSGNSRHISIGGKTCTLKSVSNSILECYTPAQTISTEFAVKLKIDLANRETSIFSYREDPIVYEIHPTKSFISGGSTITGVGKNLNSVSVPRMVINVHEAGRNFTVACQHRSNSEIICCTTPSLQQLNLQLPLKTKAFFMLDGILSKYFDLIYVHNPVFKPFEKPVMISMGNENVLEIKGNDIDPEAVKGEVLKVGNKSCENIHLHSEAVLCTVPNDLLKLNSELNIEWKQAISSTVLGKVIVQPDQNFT

[7] = target: T5, c-MET/Fc; assay: as above; remark: listed apart in the source
Protocol: To this mixture the anti-human Fc conjugated acceptor beads and c-MET/Fc (100 μM final concentration) were added and incubated for 2 hours at RT. Next, streptavidin donor beads were added and the mixture was incubated for 1 additional hour. Fluorescence was measured by reading plates on the EnVision Multilabel Plate Reader using an excitation wavelength of 680 nm and an emission wavelength of 520 nm.

[8] = target: T2, human serum albumin; assay: method not stated (Table 6 comparison)
[9] = target: T3, cynomolgus serum albumin; assay: method not stated (Table 6 comparison)

T1 sequence (P08581 25-1390 limits assumed): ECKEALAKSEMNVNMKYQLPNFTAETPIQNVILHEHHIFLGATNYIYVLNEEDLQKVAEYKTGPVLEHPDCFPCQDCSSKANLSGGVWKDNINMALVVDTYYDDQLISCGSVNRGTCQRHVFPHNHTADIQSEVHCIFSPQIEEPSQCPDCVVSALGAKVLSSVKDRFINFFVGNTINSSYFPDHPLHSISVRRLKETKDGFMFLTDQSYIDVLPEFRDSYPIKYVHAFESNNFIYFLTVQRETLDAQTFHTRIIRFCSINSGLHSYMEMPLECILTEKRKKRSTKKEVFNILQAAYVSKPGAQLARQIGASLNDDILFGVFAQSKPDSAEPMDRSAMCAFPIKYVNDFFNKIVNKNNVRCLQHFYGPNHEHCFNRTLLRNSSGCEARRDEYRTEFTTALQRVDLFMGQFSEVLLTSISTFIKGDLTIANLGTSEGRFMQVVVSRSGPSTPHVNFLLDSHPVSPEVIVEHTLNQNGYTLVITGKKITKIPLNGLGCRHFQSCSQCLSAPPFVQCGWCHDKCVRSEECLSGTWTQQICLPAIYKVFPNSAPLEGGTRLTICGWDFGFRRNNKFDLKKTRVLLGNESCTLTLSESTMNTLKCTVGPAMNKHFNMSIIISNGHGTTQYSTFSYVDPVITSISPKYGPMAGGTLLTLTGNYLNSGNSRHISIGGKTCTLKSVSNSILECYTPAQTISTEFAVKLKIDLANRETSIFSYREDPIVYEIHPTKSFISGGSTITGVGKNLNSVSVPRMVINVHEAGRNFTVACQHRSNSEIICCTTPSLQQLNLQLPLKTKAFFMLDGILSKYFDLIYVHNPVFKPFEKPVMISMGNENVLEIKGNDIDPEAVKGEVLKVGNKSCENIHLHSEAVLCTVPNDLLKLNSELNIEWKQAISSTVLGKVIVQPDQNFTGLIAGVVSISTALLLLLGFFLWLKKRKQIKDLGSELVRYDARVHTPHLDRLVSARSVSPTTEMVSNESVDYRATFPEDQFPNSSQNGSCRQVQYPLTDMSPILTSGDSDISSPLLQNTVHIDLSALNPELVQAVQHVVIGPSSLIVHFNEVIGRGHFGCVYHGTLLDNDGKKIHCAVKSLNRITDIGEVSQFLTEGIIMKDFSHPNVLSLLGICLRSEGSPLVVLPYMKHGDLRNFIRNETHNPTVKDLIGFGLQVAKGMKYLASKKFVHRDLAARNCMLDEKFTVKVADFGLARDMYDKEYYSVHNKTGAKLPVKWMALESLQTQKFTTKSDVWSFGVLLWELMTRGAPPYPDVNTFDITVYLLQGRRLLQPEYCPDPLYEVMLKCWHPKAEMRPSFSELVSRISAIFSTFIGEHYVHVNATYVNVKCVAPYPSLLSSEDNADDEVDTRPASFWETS

B1: A007901219 (A00790105-9GS-Alb23) (bispecific antibody)
chain: DVQLVESGGGLVQPGGSLRLSCAASGFILDYYAIGWFRQAPGKEREGVLCIDASDDITYYADSVKGRFTISRDNSKNTVYLQMNSLRPEDTAVYYCATPIGLSSSCLLEYDYDYWGQGTLVTVSSGGGGSGGGSEVQLLESGGGLVQPGGSLRLSCAASGFTFRSFGMSWVRQAPGKGPEWVSSISGSGSDTLYADSVKGRFTISRDNSKNTLYLQMNSLRPEDTAVYYCTIGGSLSRSSQGTLVTVSS
notes: Single polypeptide chain; also called A007901219 (Alb23)
fold improved potency vs 5D5 Fab v2, HGF-dependent c-MET phosphorylation in A549 cells [1]: ~2 fold | IC50, HGF-dependent c-MET phosphorylation in A549 cells (MSD), +HSA [2]: 4.2 nM | IC50, HGF-dependent c-MET phosphorylation in A549 cells (MSD), -HSA [2]: 5.41 nM | Kd [3]: 24 nM | koff [3]: 0.0033 s⁻¹ | kon [3]: 130000 M⁻¹ s⁻¹ | Kd [4]: 27 nM | koff [4]: 0.0032 s⁻¹ | kon [4]: 120000 M⁻¹ s⁻¹ | Kd [5]: 300 nM | koff [5]: 0.05 s⁻¹ | kon [5]: 170000 M⁻¹ s⁻¹ | fold improved potency vs 5D5 Fab v2 [6]: > 5 fold | IC50 [7]: 0.066 nM

B2: Alb-23 (VHH)
VHH: EVQLLESGGGLVQPGGSLRLSCAASGFTFRSFGMSWVRQAPGKGPEWVSSISGSGSDTLYADSVKGRFTISRDNSKNTLYLQMNSLRPEDTAVYYCTIGGSLSRSSQGTLVTVSS
notes: Monovalent anti-serum albumin Nanobody, a humanized version of Alb-1
Kd [8]: 2.7 nM | Kd [9]: 3 nM | Kd [3]: 2.6 nM | Kd [4]: 2.7 nM
